Reference: patent publication US20240252641A1 (TCR2 THERAPEUTICS, published 2024)

T1: CD70 on cells (CHO-CD70, JVM-3, U266, Raji, THP-1, T cells) (human, UniProt P32970 1-193)
T1 construct: whole, on cells; also called cell-surface CD70
T1 sequence (looked up): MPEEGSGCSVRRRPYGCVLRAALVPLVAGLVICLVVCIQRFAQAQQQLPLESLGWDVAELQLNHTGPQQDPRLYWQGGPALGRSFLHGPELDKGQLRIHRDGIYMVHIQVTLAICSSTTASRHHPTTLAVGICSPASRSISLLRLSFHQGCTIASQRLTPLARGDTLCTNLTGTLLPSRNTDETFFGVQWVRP

T2: human CD70, recombinant, N-terminally biotinylated (residues 39-193) (human, UniProt P32970 39-193, N-terminal biotin)
T2 construct: range 39-193; the same entry is used there; also called biotinylated human CD70; CD70 biotin
T2 sequence (looked up): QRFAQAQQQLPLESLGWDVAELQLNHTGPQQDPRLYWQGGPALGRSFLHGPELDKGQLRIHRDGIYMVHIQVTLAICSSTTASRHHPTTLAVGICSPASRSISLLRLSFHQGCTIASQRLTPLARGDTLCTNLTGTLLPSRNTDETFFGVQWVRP

B1: 57-TC7-VII-A03 (scFv)
scFv: QVQLQQSGPGLVKASETLSLTCAVSGHSISSSNYWGWIRQPPGKGLEWIGSIYHSGTTYYNPSLKSRVTMSVDTSKNQFSLKLSSVTAADTAVYYCARHGSGDLGYLEYWGQGTLVTVSSGGSGGSGGSGGSSYELTQSPSVSVAPGKTARITCGGNNIGSKSVHWYQQKPGQAPVLVIYYDSDRPSGIPERFSGSNSGNTATLTISRVEAGDEADYYCQVWDSSSDHPVFGGGTKVTVL
notes: His-tagged
B2: 40-TC7-VI-F11 (scFv)
scFv: EVQLVESGGGVVQPGRSLRLSCAASGFTFSSYAMHWVRQAPGKGLEWVAVISYDGSNKYYADSVKGRFTISRDNSKNTLYLQMNSLRAEDTAVYYCARDGYGFDYWGQGTLVTVSSGGSGGSGGSGGSSYELTQSPSVSVAPGQTARITCGGNNIGSKSVHWYQQKPGQAPVLVVYDDSDRPSGIPERFSGSNSGNTATLTISRVEAGDEADYYCQVWDSSTPYVFGTGTKLTVL
notes: His-tagged
B3: 55-TC4-IX-G04 (scFv)
scFv: QVQLLESGGGVVQPGRSLRLSCAASGFTFSSYAMHWVRQAPGKGLEWVAVISYDGSNKYYADSVKGRFTISRDNSKNTLYLQMNSLRAEDTAVYYCARGLGFGSGWYEYVDAFDIWGQGTMVTVSSGGSGGSGGSGGSQSVLTQPASVSGSPGQSITISCTGTSSDVGSYNLVSWYQQHPGKAPKLMIYEVSKRPSGVSNRFSGSKSGNTASLTISGLQAEDEADYYCSSYRSNNTPWVFGGGTKLTVL
notes: His-tagged
B4: 38-TC7-V-G06 (scFv)
scFv: QMQLVQSGAEVKKPGSSVKVSCKASGGTFSSYAISWVRQAPGQGLEWMGWISAYNGNTNYAQKLQGRVTMTTDTSTSTAYMELRSLRSDDTAVYYCARDDYWGQGTLVTVSSGGSGGSGGSGGSSYELTQPPSVSVAPGKTARITCSGDVLGENYADWYQQKPGQAPELVIYEDSERYPGIPERFSGSTSGNTTTLTISRVLTEDEADYYCLSGDEDNRVFGGGTKLTVL
notes: His-tagged
B5: 15-TC7-I-D07 (scFv)
scFv: QVQLQQWGAGLLKPSETLSLTCAVYGGSFSGYYWSWIRQPPGKGLEWIGEINHSGSTNYNPSLKSRVTISVDTSKNQFSLKLSSVTAADTAVYYCARVSRSRGAFDIWGQGTMVTVSSGGSGGSGGSGGSQSALTQPASVSGSPGQSITISCTGTNSDVGAYNYVSWYQQHPGKAPKLMIYEVTNRPSGVSNRFSGSKSGNTASLTISGLQAEDEADYYCSSYTSSGTWVFGGGTKLTVL
notes: His-tagged
B6: 62-TC7-V-D08 (scFv)
scFv: QVQLQQWGAGLLKPSETLSLTCAVYGGSFSGYYWSWIRQPPGKGLEWIGEINHSGSTNYNPSLKSRVTISVDTSKNQFSLKLSSVTAADTAVYYCARVARGKGAFDIWGQGTMVTVSSGGSGGSGGSGGSQSALTQPASVSGSPGQSITISCTGTSSDVGGYNYVSWYQQHPGKAPKLLIYEVSSRPSGVSNRFSGSKSGNTASLTISGLQAEDEADYYCNSYTNSGSWVFGGGTKVTVL
notes: His-tagged
B7: 51-TC7-VIII-G06 (scFv)
scFv: QVQLLESGGGLVQPGRSLRLSCAASGFTFDDYAMHWVRQAPGKGLEWVSGITWNSGSIGYADSVKGRFTISRDNAKNSLYLQMNSLRAEDTAVYYCAREVAARPFYYYGMDVWGQGTTVTVSSGGSGGSGGSGGSQSVLTQPPSVSVAPGKTARITCGGNNIGSKSVHWYQQKPGQAPVLVVYDDSDRPSGIPERFSGSNSGNTATLTISGTQAMDEADYYCQAWDSSTVFGGGTKLTVL
notes: His-tagged
B8: 46-TC7-VII-E11 (scFv)
scFv: QVQLVQSGGGVVQPGRSLRLSCAASGFTFSSYAMHWVRQAPGKGLEWVAVISYDGSNKYYADSVKGRFTISRDNSKNTLYLQMNSLRAEDTAVYYCARDSSGYYYGSDAFDIWGQGTMVTVSSGGSGGSGGSGGSSYELTQPPSVSVALGQTVRITCQGDSLRSYYASWYQQKPGQAPVLVIYGKNNRPSGIPDRFSGSSSGNTASLTITGAQAEDEADYYCNSRDSSGNPWVFGGGTKVTVL
notes: His-tagged
B9: 54-TC7-V-D10 (scFv)
scFv: QVQLQQWGAGLLKPSETLSLTCAVYGGSFSGYYWSWIRQPPGKGLEWIGEINHSGSTNYNPSLKSRVTISVDTSKNQFSLKLSSVTAADTAVYYCARGGYRSYWYFDLWGRGTLVTVSSGGSGGSGGSGGSQSALTQPASVSGSPGQSITISCTGTSSDVGGYNSVSWYQHHPGKAPKLMIYDVSDRPSGVSDRFSGSKSGNTASLTISGLQAEDEADYYCSSYAGSNNVVFGGGTKVTVL
notes: His-tagged
B10: 61-TC7-IV-H08 (scFv)
scFv: QMQLVQSGGGLVQPGRSLRLSCAASGFTFDDYAMHWVRQAPGKGLEWVAVISYDGSNKYYADSVKGRFTISRDNSKNTLYLQMNSLRAEDTAVYYCARSSYDFWSGYPKDMDVWGKGTTVTVSSGGSGGSGGSGGSSSELTQDPAVSVALGQTVRITCQGDSLRSYYASWYQQKPGQAPVLVIYGKNNRPSGIPDRFSGSSSGNTASLTITGAQAEDEADYYCNSRDSSGNHLVVFGGGTKLTVL
notes: His-tagged
B11: 56-TC7-VI-H08 (scFv)
scFv: QMQLVQSGAEVKKPGASVKVSCKASGYTFTSYYMHWVRQAPGQGLEWMGIINPSGGSTSYAQKFQGRVTMTRDTSTSTAYMELRSLRSDDTAVYYCARGWETNDAFDIWGQGTMVTVSSGGSGGSGGSGGSQSVLTQPPSVSGAPGQKVTISCSGSNSNVGNHYLSWYQHLPGTAPRLLIFDNNKRPSGIPDRFSGSKSGASATLDITGLQTGDEADYFCGTWDSRLNVWVFGGGTKLTVL
notes: His-tagged
B12: 52-TC7-VIII-C02 (scFv)
scFv: QVQLLESGGGVVQPGRSLRLSCAASGFTFSSYGMHWVRQAPGKGLEWVAVISYDGSNKYYADSVKGRFTISRDNSKNTLYLQMNSLRAEDTAVYYCAKGAYYYGSVSGMDVWGQGTTVTVSSGGSGGSGGSGGSSYELTQPVSVSVALGQTARLTCAGNNIGSKNVHWYQQKPSQAPVLVIYNDNIRPNFGIPERFSGSNSGNTATLTISSAQAGDEADYYCQVWDSSTAEVFGGGTKLTVL
notes: His-tagged

Each binder was assayed against T1, CD70 on cells (CHO-CD70, JVM-3, U266, …) (assay: 1.25 µg/mL scFv on CHO-CD70 cells).
How it was run: (§1)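 Tumour cell lines with high CD70 expression (CHO-CD70, JVM3, U266) or low CD70 expression (CHO WT, K562) were used to assess cell binding of human scFv antibodies, with results recorded per line. These antibodies had been selected by panning a naïve human library on the CD70 extracellular domain (aa39-193).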

| cell binding | Binder |
| --- | --- |
| 163000 | B1 |
| 235000 | B2 |
| 87200 | B3 |
| 1.34e+06 | B4 |
| 271000 | B5 |
| 286000 | B6 |
| 170000 | B7 |
| 76200 | B8 |
| 240000 | B9 |
| 64900 | B10 |
| 296000 | B11 |
| 430000 | B12 |

The binders below were run against T2, human CD70, recombinant, N-terminally … (assay: SPR).
How it was run: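 Surface plasmon resonance (SPR) was used to determine the affinity (Kd) of human scFv antibodies for recombinant, N-terminally biotinylated human antigen. These antibodies were selected from a naïve human library panned against the CD70 extracellular domain, spanning aa39-193.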

| Kd | Binder |
| --- | --- |
| 853 nM | B1 |
| 279 nM | B2 |
| 984 nM | B3 |
| 182 nM | B4 |
| 1750 nM | B5 |
| 194 nM | B6 |
| 532 nM | B7 |
| 180 nM | B8 |
| 209 nM | B9 |
| 332 nM | B10 |
| 535 nM | B11 |
| 64.6 nM | B12 |

The binders below were run against T2, human CD70, recombinant, N-terminally … (assay: CD27 blocking ELISA, 3 µM scFv, strep/HRP).

| strep/HRP | Binder |
| --- | --- |
| 1.49 | B1 |
| 1.37 | B2 |
| 1.28 | B3 |
| 1.53 | B4 |
| 1.45 | B5 |
| 1.54 | B6 |
| 1.46 | B7 |
| 1.26 | B8 |
| 1.17 | B9 |
| 1.52 | B10 |
| 1.44 | B11 |
| 0.533 | B12 |

What follows are binders tested against T1, CD70 on cells (CHO-CD70, JVM-3, U266, …) (assay: 1.25 µg/mL scFv on JVM-3 cells).
How it was run: as §1

| cell binding | Binder |
| --- | --- |
| 1640 | B1 |
| 4870 | B2 |
| 3570 | B3 |
| 27400 | B4 |
| 50900 | B5 |
| 45200 | B6 |
| 4260 | B7 |
| 1790 | B8 |
| 2130 | B9 |
| 1070 | B10 |
| 2360 | B11 |
| 8050 | B12 |

Each binder was assayed against T2, human CD70, recombinant, N-terminally … (assay: CD27 blocking ELISA, 3 µM scFv, anti-His/HRP; also: unit not given here).
Description: Human scFv antibodies binding CD70 were generated by panning a naïve human library with the extracellular domain (aa39-193) of CD70. 53 antibodies were identified. The ability of CD27 to block CD70 binding of the identified antibodies was measured by ELISA using two different assays. In the first assay, CD27 and his-tagged scFv anti-CD70 binders were simultaneously added to surface bound CD70, and the ability of the scFv binders to bind CD70 was detected with anti-His HRP. In the second assay, plate-bound CD70 was pre-incubated with CD27 for 30 minutes, and then additional CD27 and the his-tagged scFv anti-CD70 binder was added. The ability of the scFv binders to bind CD70 was detected with anti-His HRP. FIG. 34 is a schematic of the two different CD27 blocking assays. CD70 affinity was also measured by SPR analysis. scFv antibodies were also tested for their ability to bind tumor cell lines with high (CHO-CD70, JVM3, and U266) and low levels (CHO WT and K562 of CD70 expression. Results for 39 antibodies are shown in Table 1 below.

| anti His/HRP | Binder |
| --- | --- |
| 1.89 | B1 |
| 1.84 | B2 |
| 1.24 | B3 |
| 1.02 | B4 |
| 2.5 | B5 |
| 2 | B6 |
| 0.676 | B7 |
| 2.28 | B8 |
| 1.46 | B9 |
| 0.711 | B10 |
| 1.5 | B11 |
| 1.56 | B12 |

These binders were tested against T1, CD70 on cells (CHO-CD70, JVM-3, U266, …) (assay: 1.25 µg/mL scFv on U266 cells).
How it was run: as §1

| cell binding | Binder |
| --- | --- |
| 3150 | B1 |
| 11800 | B2 |
| 2700 | B3 |
| 16900 | B4 |
| 42900 | B5 |
| 35300 | B6 |
| 2140 | B7 |
| 2290 | B8 |
| 1140 | B9 |
| 947 | B10 |
| 6310 | B11 |
| 2980 | B12 |
